From patent US20240084027A1 (BEIJING MABWORKS, published 2024)
Like-named read-outs stand apart in the source and are kept apart here. Values belong to the binder of their own block, whether it stands above or below them.

Experiments:
[1] = target: T1, human PD-L1 on HEK293A/human PD-L1 cells (human, UniProt Q9NZQ7 19-290); test: FACS blocking assay on HEK293A/human PD-L1 cells; blocked ligand PD-1-Fc
Experimental: The bispecific antibodies were tested for their blocking activity on PD-1-PD-L1 binding by FACS using the HEK293A cells stably expressing human PD-L1 molecules as prepared in Example 1. Briefly, a 96-well plate was seeded with 10⁵ HEK293A/human PD-L1 cells in 100 μl cell culture medium, and then added with 50 μl serially diluted anti-PD-L1 antibody 56E5VH5VL4 or MBS307-3 molecules. After incubation at 4° C. for 1 h. the plate was washed with PBST for 3 times, added with 100 μl 200 μg/ml PD-1-Fc fusion proteins (Cat #:10377-10211, Sino Biological, CN), incubated at 4° C. for 1 h, washed with PBST for 3 times, and added with 1:500 diluted PE-goat anti-human IgG (Cat #:PAI-86078, Thermofisher, USA). After incubation at 4° C. for 1 h, the plate was washed with PBST for 3 times and measured for fluorescence using a FACS machine (BD).
Following the protocol of Example 7, the bi- or multi-specific antibodies were tested for their capability to block PD-1-PD-L1 binding by FACS, using the HEK293A cells prepared in Example 1 that stably expressed human PD-L1 molecules.

[2] = target: T1, human PD-L1 on HEK293A/human PD-L1 cells; test: FACS on HEK293A/human PD-L1 cells
Experimental: (§1) The bispecific antibodies as prepared above were tested for their binding capability to cell surface human, monkey and mouse CD40 proteins by FACS, using the HEK293A cells prepared in Example 1 that stably expressed human, monkey or mouse CD40. Briefly, a 96-well plate was seeded with 10⁵ HEK293A cells in 50 μl PBS, and then added with 100 μl serially diluted anti-CD40 antibody 714VH2VL2 and the bispecific antibodies of the disclosure (starting concentration at 40 μg/ml). After incubation at 4° C. for 1 h, the plate was washed by PBST for 3 times. The plate was added with 1:500 diluted APC-goat anti-mouse IgG (Cat #:405308, BioLegen, USA), incubated at 4° for 1 h, washed with PBS for 3 times, and subjected to fluorescence measurement in a FACS machine (BD).
(§2) Following the protocols in Example 4 and Example 5, the bi- or multi-specific antibodies of the disclosure were tested for their binding capability to human PD-L1 and human CD40 proteins by FACS using the HEK293A cells prepared in Example 1 that stably expressed human PD-L1 or human CD40.

[3] = target: T1, human PD-L1 on HEK293A/human PD-L1 cells; test: FACS on HEK293A/human PD-L1 cells; remark: listed apart in the source
Experimental: as §1, §2

[4] = target: T2, monkey CD40 on HEK293A/monkey CD40 cells (monkey, UniProt P25942 21-277 (human entry)); test: FACS on HEK293A/monkey CD40 cells
T2 chain: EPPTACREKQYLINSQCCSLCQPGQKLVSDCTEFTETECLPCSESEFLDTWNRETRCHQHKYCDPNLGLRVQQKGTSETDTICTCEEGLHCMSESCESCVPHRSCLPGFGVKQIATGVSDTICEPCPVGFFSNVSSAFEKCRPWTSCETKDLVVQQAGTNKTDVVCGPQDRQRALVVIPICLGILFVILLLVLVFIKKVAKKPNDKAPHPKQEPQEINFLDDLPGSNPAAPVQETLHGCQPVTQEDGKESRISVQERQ
Experimental: as §1

[5] = target: T1, human PD-L1 on HEK293A/human PD-L1 cells; test: FACS on HEK293A/human PD-L1 cells; remark: listed apart in the source
Experimental: as §1
(§3) Following the protocol of Example 4, the bispecific antibodies were tested for their binding capability to cell surface human, or monkey PD-L1 proteins by FACS, using the HEK293A cells prepared in Example 1 that stably expressed human or monkey […].

[6] = target: T3, mouse CD40 on HEK293A cells (mouse, UniProt P27512 20-289); test: FACS on HEK293A cells expressing mouse CD40
T3 sequence: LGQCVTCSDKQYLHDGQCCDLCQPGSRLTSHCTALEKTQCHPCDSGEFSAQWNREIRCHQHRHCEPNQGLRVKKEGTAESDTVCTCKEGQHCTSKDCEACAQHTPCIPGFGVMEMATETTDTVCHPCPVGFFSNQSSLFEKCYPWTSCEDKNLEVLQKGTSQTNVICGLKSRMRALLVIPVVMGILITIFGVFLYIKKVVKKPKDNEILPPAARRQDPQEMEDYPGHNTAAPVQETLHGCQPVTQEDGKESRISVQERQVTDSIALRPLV
Experimental: as §1

[7] = target: T4, human CD40 on HEK293A/human CD40 cells (human, UniProt P25942 21-277); test: FACS on HEK293A/human CD40 cells
T4 construct: also called HEK-Blue/CD40 cells
Experimental: as §1

[8] = target: monkey PD-L1 on HEK293A/monkey PD-L1 cells (monkey, UniProt Q9NZQ7 19-290 (human entry)); test: FACS on HEK293A/monkey PD-L1 cells
monkey PD-L1 on HEK293A/monkey PD-L1 cells, sequence (Q9NZQ7 other isoform, or with tags, fused parts or gaps limits assumed): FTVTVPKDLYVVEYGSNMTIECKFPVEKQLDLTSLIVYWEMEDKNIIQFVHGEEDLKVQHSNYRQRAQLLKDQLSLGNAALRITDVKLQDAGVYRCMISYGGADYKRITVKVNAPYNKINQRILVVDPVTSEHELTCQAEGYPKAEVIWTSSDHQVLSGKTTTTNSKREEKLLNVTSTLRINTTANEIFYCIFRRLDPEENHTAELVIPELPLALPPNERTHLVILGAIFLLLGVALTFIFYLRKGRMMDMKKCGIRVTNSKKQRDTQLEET
Experimental: as §1, §3

[9] = target: T4, human CD40 on HEK293A/human CD40 cells; test: FACS on HEK293A/human CD40 cells; remark: listed apart in the source
Experimental: as §1, §2

[10] = target: T1, human PD-L1 on HEK293A/human PD-L1 cells; test: FACS on HEK293A/human PD-L1 cells; remark: listed apart in the source
Experimental: as §1, §2

T1 sequence (Q9NZQ7 19-290 limits assumed): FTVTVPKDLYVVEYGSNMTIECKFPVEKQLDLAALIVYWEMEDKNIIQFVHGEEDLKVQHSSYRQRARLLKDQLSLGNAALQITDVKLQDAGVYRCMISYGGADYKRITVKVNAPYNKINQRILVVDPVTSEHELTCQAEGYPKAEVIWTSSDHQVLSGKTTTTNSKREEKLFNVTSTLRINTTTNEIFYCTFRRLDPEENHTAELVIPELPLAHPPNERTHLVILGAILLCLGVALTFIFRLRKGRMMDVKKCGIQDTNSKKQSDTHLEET

- IC50 (read off the curve) [1]: ~0.5 µg/mL
- EC50 (read off the curve) [2]: ~0.2 µg/mL
- EC50 (read off the curve) [3]: ~0.1 µg/mL
B1: anti-PD-L1 antibody 3C2VH6VL5 (antibody, V domains shown)
VH: QVQLVQSGAEVKKPGASVKVSCKASGYTFTDYHVNWVRQAPGQGLEWIGWIFPGSGRTFYTDKFKGRVTMTVDTSTSTVYMELSSLRSEDTAVYYCATDYGTSGYGLVYWGQGTTVTVSS
VL: DIQMTQSPSSLSASVGDRVTITCKASDRINNWLAWYQQKPGKAPKLLISGATSLETGVPSRFSGSGSGTDFTLTISSLQPEDIATYYCQQYWNIPFTFGQGTKVEIK
notes: also called 3C2VH46VL5 [sic]

- binding result [4]: binds
- EC50 (read off the curve) [5]: ~0.1 µg/mL
- binding result [7]: binds
- EC50 (read off the curve) [8]: ~0.04 µg/mL
B2: MBS307-2 (bispecific antibody, human IgG1, kappa, L234A L235A)
heavy: QVQLQESGPGLVKPSQTLSLTCTVSGGSITSDYWNWIRQHPGNKLEYMGYISYTGSTYYNPSLKSRISITRDTSKNQFSLKLSSVTTADTAVYYCARYRDWDVRAMDYWGQGTTVTVSSASTKGPSVFPLAPSSKSTSGGTAALGCLVKDYFPEPVTVSWNSGALTSGVHTFPAVLQSSGLYSLSSVVTVPSSSLGTQTYICNVNHKPSNTKVDKKVEPKSCDKTHTCPPCPAPEAAGGPSVFLFPPKPKDTLMISRTPEVTCVVVDVSHEDPEVKFNWYVDGVEVHNAKTKPREEQYNSTYRVVSVLTVLHQDWLNGKEYKCKVSNKALGAPIEKTISKAKGQPREPQVYTLPPSREEMTKNQVSLTCLVKGFYPSDIAVEWESNGQPENNYKTTPPVLDSDGSFFLYSKLTVDKSRWQQGNVFSCSVMHEALHNHYTQKSLSLSPGSGGGGSGGGGSQVQLQESGPGLVKPSDTLSLTCAVSGYSITTNYYWNWIRQPPGKGLEWMGYIKYDGSNNYNPSLKNRITISVDTSKNQFSLKLSSVTAVDTAVYYCARLDYWGQGTLVTVSSGGGGSGGGGSGGGGSGGGSDVVLTQSPLSLPVTLGQPASISCRSSQSLENSNGNTFLNWFQQRPGQSPRLLIYKVSNRFSGVPDRFSGSGSGTDFTLKISRVEAEDVGVYYCLQVTHVPFTFGQGTKLEIK
light: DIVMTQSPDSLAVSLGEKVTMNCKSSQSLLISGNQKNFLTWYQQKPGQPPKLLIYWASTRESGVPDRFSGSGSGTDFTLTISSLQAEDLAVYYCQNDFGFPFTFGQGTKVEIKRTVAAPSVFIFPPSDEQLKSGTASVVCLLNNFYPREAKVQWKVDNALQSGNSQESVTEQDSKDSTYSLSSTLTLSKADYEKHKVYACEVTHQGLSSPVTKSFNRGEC
notes: Symmetric: full-length anti-PD-L1 antibody (56E5VH5VL4) with an anti-CD40 scFv at the C terminus of each heavy chain
- binding result [6]: no binding (tested: starting concentration at 40 µg/ml)

- EC50 (read off the curve) [9]: ~0.04 µg/mL
- EC50 (read off the curve) [10]: ~0.5 µg/mL
B3: MBS307-8 (bispecific antibody, human IgG1, kappa, L234A L235A)
heavy 1: QVQLQESGPGLVKPSDTLSLTCAVSGYSITTNYYWNWIRQPPGKGLEWMGYIKYDGSNNYNPSLKNRITISVDTSKNQFSLKLSSVTAVDTAVYYCARLDYWGQGTLVTVSSASTKGPSVFPLAPSSKSTSGGTAALGCLVKDYFPEPVTVSWNSGALTSGVHTFPAVLQSSGLYSLSSVVTVPSSSLGTQTYICNVNHKPSNTKVDKKVEPKSCDKTHTCPPCPAPEAAGGPSVFLFPPKPKDTLMISRTPEVTCVVVDVSHEDPEVKFNWYVDGVEVHNAKTKPREEQYNSTYRVVSVLTVLHQDWLNGKEYKCKVSNKALPAPIEKTISKAKGQPREPQVYTLPPSREEMTKNQVSLWCLVKGFYPSDIAVEWESNGQPENNYKTTPPVLDSDGSFFLYSKLTVDKSRWQQGNVFSCSVMHEALHNHYTQKSLSLSPGSGGGGSGGGGSQVQLVQSGAEVKKPGASVKVSCKASGYTFTDYHVNWVRQAPGQGLEWIGWIFPGSGRTFYTDKFKGRVTMTVDTSTSTVYMELSSLRSEDTAVYYCATDYGTSGYGLVYWGQGTTVTVSSGGGGSGGGGSGGGGSGGGGSDIQMTQSPSSLSASVGDRVTITCKASDRINNWLAWYQQKPGKAPKLLISGATSLETGVPSRFSGSGSGTDFTLTISSLQPEDEATYYCQQYWNIPFTFGQGTKLTAK
heavy 2: QVQLQESGPGLVKPSDTLSLTCAVSGYSITTNYYWNWIRQPPGKGLEWMGYIKYDGSNNYNPSLKNRITISVDTSKNQFSLKLSSVTAVDTAVYYCARLDYWGQGTLVTVSSASTKGPSVFPLAPSSKSTSGGTAALGCLVKDYFPEPVTVSWNSGALTSGVHTFPAVLQSSGLYSLSSVVTVPSSSLGTQTYICNVNHKPSNTKVDKKVEPKSCDKTHTCPPCPAPEAAGGPSVFLFPPKPKDTLMISRTPEVTCVVVDVSHEDPEVKFNWYVDGVEVHNAKTKPREEQYNSTYRVVSVLTVLHQDWLNGKEYKCKVSNKALPAPIEKTISKAKGQPREPQVYTLPPSREEMTKNQVSLSCAVKGFYPSDIAVEWESNGQPENNYKTTPPVLDSDGSFFLVSKLTVDKSRWQQGNVFSCSVMHEALHNHYTQKSLSLSPGSGGGGSGGGGSQVQLQESGPGLVKPSQTLSLTCTVSGGSITSDYWNWIRQHPGNKLEYMGYISYTGSTYYNPSLKSRISITRDTSKNQFSLKLSSVTTADTAVYYCARYRDWDVRAMDYWGQGTTVTVSSGGGGSGGGGSGGGGSGGGGSDIVMTQSPDSLAVSLGEKVTMNCKSSQSLLISGNQKNFLTWYQQKPGQPPKLLIYWASTRESGVPDRFSGSGSGTDFTLTISSLQAEDEAVYYCQNDFGFPFTFGQGTKLTAK
light: DVVLTQSPLSLPVTLGQPASISCRSSQSLENSNGNTFLNWFQQRPGQSPRLLIYKVSNRFSGVPDRFSGSGSGTDFTLKISRVEAEDVGVYYCLQVTHVPFTFGQGTKLEIKRTVAAPSVFIFPPSDEQLKSGTASVVCLLNNFYPREAKVQWKVDNALQSGNSQESVTEQDSKDSTYSLSSTLTLSKADYEKHKVYACEVTHQGLSSPVTKSFNRGEC
notes: Asymmetric: knob chain with the 3C2VH6VL5 scFv, hole chain with the 56E5VH5VL4 scFv, linker 3 (long linker); also called MBS307-8-1 + MBS307-8-2
